Data on one substance can be found in US20210238262A1.

The target of this experiment is ZIKV PR (Puerto Rican strain, PRVABC59) virus (Zika virus strain PRVABC59). Description: cell-based or functional assay.

Take Z004 (antibody): the micro-neutralization (MN50) in Vero cells, IC50 is 1.4 ng/mL.
